In the RNAGym collection of RNA variant scans (doi:10.7554/elife.80360) one finds self-cleavage data, which are given here for 38 variants.

B1: Hairpin Ribozyme (parent)
chain: GUCCUCUUUCACGUGCGCGUGAAAGAGAGAAGUGAACCAGAGAAACACACGUUGUGGUAUAUUACCUGGUA

The variants in the data set derive from B1. Put plainly: self-cleavage, relative activity (ratio to wild type); higher = more cleavage; co-transcriptional.
Turning to GUUCUCUUUCACGUGCGCGUGAAAGAGAGAAGUGAACCAGAGAAACACACGUUGUGGUAUAUUACCAGGUA, the self-cleavage is 0.0952. The figure for GUCAUCUUUCACGUGCGCGUGAACGAGAGAAGUGAACCAGAGAAACACACGUUGUGGUAUAUUACCUGGUA is 0.137. As for GUUCUCUUUCACGUGCGUGUGAAAGAGAGAAGUGAACCAGAGAAACACACGUUGUGGUAUAUUACCUGGUA, the self-cleavage came out at 0.487. Next, GUUCUCUUUCACGUGCGCGUGAAAGAGAGAAGUGAACCAGAGAAACACACGUUGUGGUAUAUUACCUGGUG: 0.653; GUUCUCUUUAACGUGCGCGUGAAAGAGAGAAGUGAACCAGAGAAACACACGUUGUGGUAUAUUACCUGGUA: 0.276. Take GUUCUCUUUUACGUGCGCGUGAAAGAGAGAAGUGAACCAGAGAAACACACGUUGUGGUAUAUUACCUGGUA: the self-cleavage was determined as 0.454. In the case of GUUCUCUUUCACGUGCGCGUGAAAGAGGGAAGUGAACCAGAGAAACACACGUUGUGGUAUAUUACCUGGUA, the self-cleavage was determined as 0.554. Next, GUUCUCUUUCACGUGCGCGUGAAAGAGUGAAGUGAACCAGAGAAACACACGUUGUGGUAUAUUACCUGGUA: 0.582.

Regarding GUCAUCUUUCACGUGCGCGUGAAAGAGAGAAGUGAACCAGAGACACACACGUUGUGGUAUAUUACCUGGUA, the self-cleavage was 0.0924. The figure for GUCAUCUUUCACGUGCGCGUGAAAGAGAGAAGUGAACCAGAGAGACACACGUUGUGGUAUAUUACCUGGUA is 0.0937. Next, GUUCUCUUUCACGUGCGCGUGAAAGAGAGAAGUGAACCAGAGAAACACACGUUGUCGUAUAUUACCUGGUA: 0.182.

As for GUUCUCUUUCACGUGCGCGUGAAAGAGAGAAGUGAACCAGAGAAACACACGUUGUUGUAUAUUACCUGGUA, the self-cleavage came out at 0.0961. On to GUUCUCUUUCACGUGCGCGUGAAAGAGAGAAGUGAACCAGAGAAACACACGUUGUGGUAAAUUACCUGGUA, for which the self-cleavage came out at 0.446. On to GUUCUCUUUCACGUGCGCGUGAAAGAGAGAAGUGAACCAGAGAAACACACAUUGUGGUAUAUUACCUGGUA, for which the self-cleavage was found to be 0.467. With GUCAUCUUUCACGUGCGCGUGAAAGAGAGAAGUGAACCCGAGAAACACACGUUGUGGUAUAUUACCUGGUA, the self-cleavage is 0.166. On to GUUCUCUUUCACGUGCGCGUGAAAGAGAGAAGUGAACCAGAGAGACACACGUUGUGGUAUAUUACCUGGUA, for which the self-cleavage is 0.254. Next, GUUCUCUUUCACGUGCGCGUGGAAGAGAGAAGUGAACCAGAGAAACACACGUUGUGGUAUAUUACCUGGUA: 0.603. For GUCAUCUUUCACGUGCGCGUGAAAGAGAGAUGUGAACCAGAGAAACACACGUUGUGGUAUAUUACCUGGUA, the self-cleavage stood at 0.245. The figure for GUUCUCUUUCACGUGCGCGUGAAAGAGAGAAGUGAACCAGAGAAACACACGCUGUGGUAUAUUACCUGGUA is 0.611; for GUUCUCUUUCACGUGCGCGUGAAAGAGAGAAGUGAACCAGAGAAACACACGGUGUGGUAUAUUACCUGGUA it is 0.446; for GUUCUCUUUCACGUCCGCGUGAAAGAGAGAAGUGAACCAGAGAAACACACGUUGUGGUAUAUUACCUGGUA it is 0.727. Next, GUUCUCUUUCACGUGCGCGUGAAAGAGAGAAGUGAACCAGAGAAACACACGUUGUGGUAUAUUACCUAGUA: 0.183; GUCAUCUUUCACGUGCGCGUGAAAGAGAGCAGUGAACCAGAGAAACACACGUUGUGGUAUAUUACCUGGUA: 0.0814; GUUCUCUUUCACGUGCGCGAGAAAGAGAGAAGUGAACCAGAGAAACACACGUUGUGGUAUAUUACCUGGUA: 0.374. Regarding GUUCUCUUUCACGUGCGCGUGAAAGAGAGAAGUGAACCAGAGAAACACACGUGGUGGUAUAUUACCUGGUA, the self-cleavage stood at 0.517. Next, GUCAUCUUUCACGUGCGCGUGAAAGAGAGAAGUGAACCAGAGAAACUCACGUUGUGGUAUAUUACCUGGUA: 0.0985; GUCAUCUUUCACGUGCGCGUGAAAGAGAGAAGUGACCCAGAGAAACACACGUUGUGGUAUAUUACCUGGUA: 0.138. Regarding GUUCUCUUUCACGUGCGCGUGAAAGAGAGAAGUGAACCAGAGAAACACACGUUGUGGUAUAUUACAUGGUA, the self-cleavage was found to be 0.0858.

GUUCUCUUUCACGUGCGCGUGAAAGACAGAAGUGAACCAGAGAAACACACGUUGUGGUAUAUUACCUGGUA: the self-cleavage came to 0.177. Next, GUUCUCUUUCACGUGCGCGUGAAAGAAAGAAGUGAACCAGAGAAACACACGUUGUGGUAUAUUACCUGGUA: 0.187; GUUCUCUUUCACGUGCGCGUGAAAGAGAGAAGUGAUCCAGAGAAACACACGUUGUGGUAUAUUACCUGGUA: 0.33; GUUCUCUUUCACGUGCGCGUGAAAGAGAGAAGUGAACCAGAGAAACACACGUUGUGGUUUAUUACCUGGUA: 0.205. Next, GUCAUCUUUCACGUGCGCGUGAAAGAGGGAAGUGAACCAGAGAAACACACGUUGUGGUAUAUUACCUGGUA: 0.247; GUCAUCUUUCACGUGCGCGUGAAAGAGCGAAGUGAACCAGAGAAACACACGUUGUGGUAUAUUACCUGGUA: 0.0846; GUUCUCUUUCACGUGCGCGUGAAAGAGAGAAGUGAACCAGAGAAAUACACGUUGUGGUAUAUUACCUGGUA: 0.151.

Regarding GUUCUCUUUCACGUGCGCGUGAAAGUGAGAAGUGAACCAGAGAAACACACGUUGUGGUAUAUUACCUGGUA, the self-cleavage came out at 0.27. Next, GUUCUCUUUCACGUGCGCGUGAAAGAGAGAAGUGGACCAGAGAAACACACGUUGUGGUAUAUUACCUGGUA: 0.717; GUUCUCUGUCACGUGCGCGUGAAAGAGAGAAGUGAACCAGAGAAACACACGUUGUGGUAUAUUACCUGGUA: 0.245.
